Data: PMC7658645, “Aptamer-Based Western Blot for Selective Protein Recognition”

B1: G1 (ssDNA)
DNA: ATACGACTCACTATTAGGGACAAAGCTGACAACCCTTTCATAATCTAACTACATTTATGTGCTAGACTACTGACTAC

Columns and labels:
[1] = target: Maltose-binding protein (Escherichia coli (strain K12), UniProt P0AEX9 27-396); experiment: Western blot, SDS-denatured protein on nitrocellulose; conditions: label: 5'-Cy5.5
[2] = target: histone H4 (UniProt P62805 2-103); experiment: aptamer blot; on nitrocellulose; all four histone types labeled without selectivity; Dot blot/aptamer blot: 20 mM Tris-HCl, 100 mM NaCl, 5 mM MgCl2, 0.1% BSA (pH not given), 50 nM aptamer in dot blot (membranes equilibrated at 4 C), blots 1 h af

| Binder | binding result [1] | binding result [2] |
| --- | --- | --- |
| B1 | no binding |  |
| GAGTGTGGTTCCCGGGAGGGCGCCTACGGGTCCCGTATTCGGATTTGTGC (ssDNA) [3.13] |  | binds |
